Measurements as given in PMC8231982.

Molecular target: influenza hemagglutinin full length protein, A/New-York/55/04 (H3N2) (influenza A virus A/New-York/55/04 (H3N2))
Assay: SPR

Chain of wild-type cyanovirin-N (WT CV–N) (P81180 whole entry): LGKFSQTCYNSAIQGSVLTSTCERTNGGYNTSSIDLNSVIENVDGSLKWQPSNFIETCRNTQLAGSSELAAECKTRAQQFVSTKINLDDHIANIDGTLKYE

wild-type cyanovirin-N (WT CV–N) (from UniProt P81180 1-101) (natural protein)
Kd: 5.7 nM
